Laboratory results reported in patent publication US20250262210A1 (TRUSTEES OF COLUMBIA UNIVERSITY IN THE CITY OF NEW YORK, published 2025).

How the values were obtained:
Experiment in all cases: IP/MS, LZTR1 R810W-FLAG, U87
[1] = biological target: ARHGEF40 (human, UniProt Q8TER5 1-1519, limits assumed)
Outline: (§1)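 Extracted peptides in 3% acetonitrile/0.1% formic acid ran on a 50 cm C18 column into an Orbitrap Fusion, with MaxQuant identification and spectral counting.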

[2] = biological target: T1, NCAPG2 (human, UniProt Q86XI2 1-1143, limits assumed)
T1 sequence (looked up): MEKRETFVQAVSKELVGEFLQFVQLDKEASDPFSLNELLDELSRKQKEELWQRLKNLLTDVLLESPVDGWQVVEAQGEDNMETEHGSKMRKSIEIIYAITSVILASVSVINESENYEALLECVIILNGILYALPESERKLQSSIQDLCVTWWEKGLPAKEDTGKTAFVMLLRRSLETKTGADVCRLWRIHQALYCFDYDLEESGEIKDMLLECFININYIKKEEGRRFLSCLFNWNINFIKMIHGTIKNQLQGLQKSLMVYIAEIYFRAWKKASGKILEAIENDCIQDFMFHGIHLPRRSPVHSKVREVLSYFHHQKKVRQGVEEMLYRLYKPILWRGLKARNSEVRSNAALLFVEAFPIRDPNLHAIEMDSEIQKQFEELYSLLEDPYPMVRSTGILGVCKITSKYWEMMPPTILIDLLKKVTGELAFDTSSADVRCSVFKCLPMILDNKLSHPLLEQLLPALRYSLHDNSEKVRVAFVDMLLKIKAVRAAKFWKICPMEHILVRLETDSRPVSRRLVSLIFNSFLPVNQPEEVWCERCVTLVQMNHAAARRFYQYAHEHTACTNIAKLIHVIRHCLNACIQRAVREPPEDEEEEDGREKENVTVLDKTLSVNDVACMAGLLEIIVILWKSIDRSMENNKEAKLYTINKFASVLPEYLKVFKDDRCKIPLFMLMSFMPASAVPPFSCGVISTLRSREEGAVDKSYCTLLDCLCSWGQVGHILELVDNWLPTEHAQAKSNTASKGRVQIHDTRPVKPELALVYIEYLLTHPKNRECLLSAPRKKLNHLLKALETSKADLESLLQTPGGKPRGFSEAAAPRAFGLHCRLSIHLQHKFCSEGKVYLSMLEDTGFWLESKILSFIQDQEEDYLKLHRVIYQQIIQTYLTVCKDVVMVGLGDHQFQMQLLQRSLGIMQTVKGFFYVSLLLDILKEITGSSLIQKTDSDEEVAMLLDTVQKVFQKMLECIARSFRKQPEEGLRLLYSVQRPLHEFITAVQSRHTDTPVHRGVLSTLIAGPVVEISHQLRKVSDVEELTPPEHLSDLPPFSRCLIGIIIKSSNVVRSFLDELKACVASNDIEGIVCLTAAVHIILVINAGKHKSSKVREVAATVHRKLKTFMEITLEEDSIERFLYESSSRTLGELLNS
Outline: as §1

[3] = biological target: T2, EMC1 (human, UniProt Q8N766 23-993, limits assumed)
T2 sequence (looked up): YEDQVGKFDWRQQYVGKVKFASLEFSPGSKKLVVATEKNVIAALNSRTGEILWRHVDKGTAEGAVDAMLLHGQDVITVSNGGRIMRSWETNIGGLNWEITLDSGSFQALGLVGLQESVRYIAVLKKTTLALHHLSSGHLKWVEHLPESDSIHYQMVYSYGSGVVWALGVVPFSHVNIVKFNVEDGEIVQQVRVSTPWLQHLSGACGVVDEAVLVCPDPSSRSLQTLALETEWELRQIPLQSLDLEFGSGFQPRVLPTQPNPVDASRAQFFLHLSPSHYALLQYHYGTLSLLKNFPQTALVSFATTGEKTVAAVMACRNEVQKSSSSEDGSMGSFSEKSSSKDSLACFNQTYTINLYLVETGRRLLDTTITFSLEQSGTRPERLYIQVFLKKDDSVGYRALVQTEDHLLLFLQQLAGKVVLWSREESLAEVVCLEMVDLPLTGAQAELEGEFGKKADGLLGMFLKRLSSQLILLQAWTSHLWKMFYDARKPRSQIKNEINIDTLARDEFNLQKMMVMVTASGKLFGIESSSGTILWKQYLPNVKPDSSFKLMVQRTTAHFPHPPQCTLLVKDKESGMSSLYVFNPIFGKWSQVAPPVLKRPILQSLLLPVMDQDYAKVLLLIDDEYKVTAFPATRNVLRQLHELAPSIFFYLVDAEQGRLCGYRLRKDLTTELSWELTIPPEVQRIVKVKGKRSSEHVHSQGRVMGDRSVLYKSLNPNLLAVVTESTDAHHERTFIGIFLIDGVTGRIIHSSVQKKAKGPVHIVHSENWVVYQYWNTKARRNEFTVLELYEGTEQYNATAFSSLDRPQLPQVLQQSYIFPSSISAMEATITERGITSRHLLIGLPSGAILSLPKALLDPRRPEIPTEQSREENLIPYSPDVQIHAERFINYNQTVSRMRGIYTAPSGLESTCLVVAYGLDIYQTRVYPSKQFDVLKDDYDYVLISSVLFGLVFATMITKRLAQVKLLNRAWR
Outline: as §1

Measured: binding result

ARHGEF40, sequence (Q8TER5 whole entry, the tested form may be a part): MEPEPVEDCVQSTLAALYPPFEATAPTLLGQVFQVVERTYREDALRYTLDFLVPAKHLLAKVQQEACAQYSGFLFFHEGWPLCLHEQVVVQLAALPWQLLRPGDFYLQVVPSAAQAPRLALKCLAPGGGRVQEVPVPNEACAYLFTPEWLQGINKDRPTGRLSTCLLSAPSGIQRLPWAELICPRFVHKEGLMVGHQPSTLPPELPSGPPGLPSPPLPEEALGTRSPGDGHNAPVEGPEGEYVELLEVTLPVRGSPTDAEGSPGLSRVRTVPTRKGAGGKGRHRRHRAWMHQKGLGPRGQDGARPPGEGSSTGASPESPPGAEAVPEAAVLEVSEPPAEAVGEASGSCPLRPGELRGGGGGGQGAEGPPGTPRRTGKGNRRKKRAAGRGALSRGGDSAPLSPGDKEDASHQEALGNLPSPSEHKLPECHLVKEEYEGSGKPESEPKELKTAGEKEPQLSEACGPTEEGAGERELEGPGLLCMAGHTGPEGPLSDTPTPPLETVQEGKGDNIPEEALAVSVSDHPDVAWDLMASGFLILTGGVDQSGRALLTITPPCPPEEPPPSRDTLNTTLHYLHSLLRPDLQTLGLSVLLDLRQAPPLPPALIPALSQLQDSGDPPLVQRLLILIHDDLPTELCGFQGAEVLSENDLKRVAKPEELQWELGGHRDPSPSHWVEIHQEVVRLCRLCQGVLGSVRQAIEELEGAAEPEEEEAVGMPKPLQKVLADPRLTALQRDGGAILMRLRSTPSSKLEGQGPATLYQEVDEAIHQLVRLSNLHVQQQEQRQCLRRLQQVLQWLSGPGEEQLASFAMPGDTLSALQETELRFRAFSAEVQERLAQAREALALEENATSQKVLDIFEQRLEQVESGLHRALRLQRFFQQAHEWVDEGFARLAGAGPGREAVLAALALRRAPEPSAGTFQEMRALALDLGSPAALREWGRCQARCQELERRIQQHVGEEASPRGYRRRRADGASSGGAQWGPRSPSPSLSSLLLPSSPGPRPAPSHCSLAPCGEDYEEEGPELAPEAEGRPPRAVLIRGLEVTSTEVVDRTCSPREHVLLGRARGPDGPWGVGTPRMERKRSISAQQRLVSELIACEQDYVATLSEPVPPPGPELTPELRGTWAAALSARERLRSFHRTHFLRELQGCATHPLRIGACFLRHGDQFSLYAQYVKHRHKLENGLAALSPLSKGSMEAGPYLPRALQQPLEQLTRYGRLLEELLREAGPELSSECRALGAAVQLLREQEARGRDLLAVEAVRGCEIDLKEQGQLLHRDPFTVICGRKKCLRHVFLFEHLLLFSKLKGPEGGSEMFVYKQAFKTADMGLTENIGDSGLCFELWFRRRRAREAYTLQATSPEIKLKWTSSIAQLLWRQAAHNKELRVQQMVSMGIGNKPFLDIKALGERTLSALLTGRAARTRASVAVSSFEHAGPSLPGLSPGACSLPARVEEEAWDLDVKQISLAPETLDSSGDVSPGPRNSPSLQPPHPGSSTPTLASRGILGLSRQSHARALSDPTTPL

B1: LZTR1 R810W-FLAG (other, human, UniProt Q8N653 1-840, looked up)
chain: MAGPGSTGGQIGAAALAGGARSKVAPSVDFDHSCSDSVEYLTLNFGPFETVHRWRRLPPCDEFVGARRSKHTVVAYKDAIYVFGGDNGKTMLNDLLRFDVKDCSWCRAFTTGTPPAPRYHHSAVVYGSSMFVFGGYTGDIYSNSNLKNKNDLFEYKFATGQWTEWKIEGRLPVARSAHGATVYSDKLWIFAGYDGNARLNDMWTIGLQDRELTCWEEVAQSGEIPPSCCNFPVAVCRDKMFVFSGQSGAKITNNLFQFEFKDKTWTRIPTEHLLRGSPPPPQRRYGHTMVAFDRHLYVFGGAADNTLPNELHCYDVDFQTWEVVQPSSDSEVGGAEVPERACASEEVPTLTYEERVGFKKSRDVFGLDFGTTSAKQPTQPASELPSGRLFHAAAVISDAMYIFGGTVDNNIRSGEMYRFQFSCYPKCTLHEDYGRLWESRQFCDVEFVLGEKEECVQGHVAIVTARSRWLRRKITQARERLAQKLEQEAAPVPREAPGVAAGGARPPLLHVAIREAEARPFEVLMQFLYTDKIKYPRKGHVEDVLLIMDVYKLALSFQLCRLEQLCRQYIEASVDLQNVLVVCESAARLQLSQLKEHCLNFVVKESHFNQVIMMKEFERLSSPLIVEIVRRKQQPPPRTPLDQPVDIGTSLIQDMKAYLEGAGAEFCDITLLLDGHPRPAHKAILAARSSYFEAMFRSFMPEDGQVNISIGEMVPSRQAFESMLRYIYYGEVNMPPEDSLYLFAAPYYYGFYNNRLQAYCKQNLEMNVTVQNVLQILEAADKTQALDMKRHCLHIIVHQFTKVSKLPTLWSLSQQLLLDIIDSLASHISDKQCAELGADI
notes: Stably expressed in U87 cells by lentivirus; also called LZTR1-FLAG-R810W; LZTR1 RW; not shown: FLAG tag
binds: all assays above
